Data: the supplement of paper PMC10567573

B1: PRKX (parent)
chain: KLLVVDRTRRLGNMKNGANDVKHH

Variants of: B1
Assay: protein stability index of a GFP-peptide fusion (GPS, HEK-293T) (PSI 1-6); higher = more stable
Details: c terminus: a fixed tail appended
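Also: lentivirally expressed fusions sorted by FACS into six bins by GFP to DsRed ratio, PSI derived from sequencing read proportions per bin multiplied by bin number.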

Protein stability index: each site, then its substitutions
T8: N 2.78; E 3.38; W 2.78; M 2.54; A 3.03; I 1.97; R 2.86; Q 3.08; L 2.47; F 2.56; V 3; Y 2.67; K 2.88; G 2.55; S 2.67; C 2.98; P 2.74; D 3.46; H 2.97
G12: S 3.02; F 2.51; M 2.24; C 2.84; V 2.67; H 3; Q 3.19; W 2.19; K 2.48; L 2.83; I 2.04; D 3.12; T 2.95; E 3.38; N 2.6; R 2.67; Y 2.5; A 2.84; P 3.19
R10: W 2.8; H 3.04; E 4.05; Y 2.72; A 3.06; V 3.08; Q 3.65; P 3.43; T 3.83; D 3.68; F 2.31; C 2.61; G 3.35; I 2.94; M 2.85; N 3.4; L 2.82; K 2.84; S 4.15
N16: P 3.16; A 2.54; W 2.26; L 2.69; H 2.85; E 3.18; V 2.62; I 2.74; R 2.74; K 3.19; Q 3.25; M 2.26; Y 2.38; T 3.25; F 2.42; C 2.13; S 3.27; G 2.84; D 2.85
V21: E 4.12; Q 3.36; M 3.06; P 3.37; C 2.67; I 2.55; Y 2.34; L 2.66; D 3.54; H 3.43; G 3.47; N 3.74; K 3.54; R 2.79; A 3.5; F 3.22; T 3.39; W 2.62; S 3.2
H24: F 2.36; P 2.91; T 3.25; S 3.48; D 3.4; G 2.75; E 3.96; R 3.1; L 2.11; M 2.63; N 2.81; K 3; I 2.23; Q 3.01; C 3; A 3.61
H23: E 3.44; F 2.53; G 2.92; M 2.33; D 3.68; L 2.85; S 2.73; Q 2.69; A 3.1; W 3.4; V 2.96; I 2.67; Y 2.35; T 3.18; R 2.44; P 3.37; N 3.72; K 3.4; C 2.94
L11: V 3.09; I 3.22; D 3.84; G 3.21; F 2.93; K 2.93; Q 3.42; E 3.7; P 3.57; T 3.47; M 2.77; S 3.27; R 3.65; A 3.23; N 3.6; W 2.67; H 3.64; C 2.57; Y 3.1
A18: V 2.63; R 2.97; D 3.85; P 2.87; N 3.19; H 3.34; S 3.27; C 3.55; L 2.7; W 2.2; I 2.35; K 3.21; Q 2.95; F 2.53; M 2.16; G 3.27; Y 2.29; E 3.67; T 3.23
R9: Y 2.63; G 3.13; A 3.11; K 2.99; C 2.21; L 2.69; F 2.76; E 3.5; M 2.99; N 2.81; W 2.12; Q 3.38; I 2.73; P 3.45; S 3.33; H 3.07; V 2.6; T 3.21; D 3.4
K15: T 2.78; V 2.72; D 3.85; W 2.48; L 2.86; F 2.85; H 3.27; I 2.73; S 3.47; N 2.95; M 2.73; Q 3.5; A 3.25; Y 2.68; C 2.57; E 3.92; P 2.9; G 3.38; R 3.6
G17: H 3.4; A 3.05; D 3.5; F 1.81; I 2.74; V 3.04; L 2.81; M 2.63; Y 2.34; T 2.9; R 2.55; K 3.06; E 3.52; P 2.63; N 3.08; C 2.63; Q 3; W 1.86; S 2.85
D20: W 2.3; N 2.74; V 2.6; I 2.09; A 3.13; T 2.65; K 2.55; Y 2.19; C 2.33; F 2.13; S 2.38; E 3.01; R 2.53; M 2.71; G 3.27; H 2.89; P 2.75; Q 3.13; L 2.41
K22: C 2.7; D 3.42; A 2.71; E 3.58; N 3.06; S 3.52; H 3.06; T 2.99; V 2.88; P 3.02; L 2.97; Q 3.27; Y 2.5; I 2.32; M 2.51; F 2.04; R 2.97; W 2.13; G 3.24
R7: N 3.25; M 2.43; K 2.56; L 2.92; S 3.21; V 2.81; Q 3.97; I 2.13; P 3.62; G 3.22; T 3.18; W 2.5; H 3.03; Y 2.5
N19: L 2.47; G 3.12; H 2.75; F 2.32; V 2.64; S 3.16; C 2.66; T 3.11; R 2.54; E 3.3; K 3.6; I 2.29; D 3.12; W 2.71; A 2.84; P 2.97; Y 2.08; M 2.59; Q 2.89
M14: S 3.37; Y 3.03; H 3.54; I 3.31; C 2.85; F 2.99; R 2.77; K 3.85; G 3.74; N 3.67; P 2.98; D 4.09; E 3.8; T 3; L 2.89; V 3.22; W 2.62; Q 3.62; A 3.4
N13: K 2.81; T 3.09; M 2.51; I 2.54; D 3.46; P 2.75; H 2.81; R 2.75; C 2.62; V 3.02; Y 3; G 2.84; W 2.6; E 3.6; L 2.31; A 3.44; S 2.91; Q 2.6; F 2.02
